Columns and labels:
[1] = biological target: T1, YtrASa (Sulfolobus acidocaldarius) (UniProt Q4J7S4); assay: EMSA; details: 20 mM Tris-HCl pH 8.0, 1 mM MgCl2, 0.1 mM DTT, 12.5% glycerol, 50 mM NaCl, 0.4 mM EDTA, 37 C; ~0.1 nM 32P-DNA, excess non-specific competitor DNA; 6% native …
T1 sequence: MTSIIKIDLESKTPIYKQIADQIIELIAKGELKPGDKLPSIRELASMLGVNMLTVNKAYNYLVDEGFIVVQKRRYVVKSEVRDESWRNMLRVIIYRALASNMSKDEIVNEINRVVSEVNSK

[2] = biological target: T1, YtrASa (Sulfolobus acidocaldarius); assay: DNase I footprinting; details: 20 mM Tris-HCl pH 8.0, 1 mM MgCl2, 0.1 mM DTT, 12.5% glycerol, 50 mM NaCl, 0.4 mM EDTA, 37 C; ~0.1 nM 32P-DNA, excess non-specific competitor DNA; 6% native …

Substance	Kd [1]	binding [1]	binding [2]
ytrASa (Saci_1851) target, 102 bp	37 nM		
TCCTGAAGGCCTAAAAGAGTACATTCTAGACCTTTCCGCATAAAACTTAGGTAGGGCTAGGCATAATGCAAAAGCCCTCAAACTTTTCATTAAAGAAGTGATT (double strand) [Saci_0677 target]		no binding	
AAAATGGGAGAGTAATCGGTTTTTATTGAGACTTCGCAATACGATATATATGGATACAAAAGTTGTAATTAGAAGAGATCAGTGGAAACCAGGATCGGCGATGGAAATAAAGCGAGGCGT (double strand) [Saci_1234 target]		no binding	
TCGTCAACAACCTATATAAGCCATAACTTTAAATAAGGATATTGTTATATTTGTTATATGACAAATATGTTTTCATTACTCTACCCGCTAATCTCCATAG (double strand) [Saci_2078 target, 100 bp]	34 nM		binds
AGCAACACCAAAGGATTGAATTTCATTTCTATCCCTGTTTGACTTAAAGCAAGACTCTTGAATAAAAAATATAATTTAGAGGTTTACTAAAAACAAACCGTGAACGTAGGAAGA (double strand) [Saci_0871 target]		no binding	
GTTTTGAGTACAACCTAACCCATTATACTAAATAAGGTTTATTTATTTTAGTAACTTTTAGAAATTATGCAAGATCTTTTTTGGGAAAGTGCAAATTGCCTTGAGGGAAAAGGTCTGCAA (double strand) [Saci_2168 target]		no binding	
CTTACCTTTTATAGTAGGTAAATAAGGTTTTTATTCCCCTAAATCATATATTTGCTATATGACAAGTATAATAAAAATCGACCTAGAGTCCAAGACTCCCATC (double strand) [ytrASa (Saci_1851) target, 102 bp]	37 nM	binds	binds
GGGAAAGGATATTGGGGAAATATTAAAAATACTGGGTTGAAGTTTAAACTTGTGTTTAAACAACTAATAATTAAATATTTTGGGATAATATCTGTTGTAATCCTTGCAACAATAATCTC (double strand) [Saci_0421 target]		no binding	
AACTGCGGTGAATAAAGTAGGGTGTTTGATTTTTGCCAAAGAAGAGGGAGAATAGAGGAAGAAGAAAGGGCGACAAAGGACACGTTGGTAGCATACATTGTGACCA (double strand) [Saci_1554 target]		binds more weakly	
Saci_2078 target, 100 bp	34 nM		

Source: publication PMC6746942
